Data published in publication PMC4757451.

Substrate: NC(=O)N1c2ccccc2C=Cc2ccccc21
Assay: Steady-state NADPH oxidation by CYP3A4 Nanodiscs with CPR
Format: biochemical, human
Conditions: other: at 30 µM PGS; at 200 µM CBZ; pH 7.4; 37.0 °C

B1: CYP3A4 (Homo sapiens; S18F) (protein)
chain: MALLLAVFLVLLYLYGTHSHGLFKKLGIPGPTPLPFLGNILSYHKGFCMFDMECHKKYGKVWGFYDGQQPVLAITDPDMIKTVLVKECYSVFTNRRPFGPVGFMKSAISIAEDEEWKRLRSLLSPTFTSGKLKEMVPIIAQYGDVLVRNLRREAETGKPVTLKDVFGAYSMDVITSTSFGVNIDSLNNPQDPFVENTKKLLRFDFLDPFFLSITVFPFLIPILEVLNICVFPREVTNFLRKSVKRMKESRLEDTQKHRVDFLQLMIDSQNSKETESHKALSDLELVAQSIIFIFAGYETTSSVLSFIMYELATHPDVQQKLQEEIDAVLPNKAPPTYDTVLQMEYLDMVVNETLRLFPIAMRLERVCKKDVEINGMFIPKGVVVMIPSYALHRDPKYWTEPEKFLPERFSKKNKDNIDPYIYTPFGSGPRNCIGMRFALMNMKLALIRVLQNFSFKPCKETQIPLKLSLGGLLQPEKPVVLKVESRDGTVSGA
- kcat: 2.05 s⁻¹
